# System: M. lysodeikticus
# Assay: Lysozyme activity after aerosolization from ethanol (standard assay against dried cells of M. lysodeikticus)
# Assay type: biochemical
# Experimental: […] The reservoir containing the ethanol solution was connected via a plastic tube to a collecting test tube placed in an ice booth to facilitate condensation of the solution. The nebulization was started and continued for 5 minutes. As a result, about one mL of the ethanol solution was collected in the test tube (i.e. was aerosolized). No solution was collected with the nebulizer switched off. The lysozyme activity of the nebulized solution was measured using the standard assay against dried calls of M. lysodeikticus. (Shugar, Biochim. Biophys. Acta 8, 302 (1952)).
substance,measurement,setting,value
lysozyme: hen egg-white lysozyme (a model protein),specific activity of the nebulized solution relative to the initial enzyme solution,"0.1 mg/ml solution in ethanol, compressor nebulizer, 5 minutes","the same, (±10%) as that of the initial enzyme solution"
same,loss of enzymatic activity upon aerosolization,dispersion in ethanol at 1 mg/ml,no appreciable loss of enzymatic activity
same,loss of enzymatic activity upon aerosolization,dispersion in ethanol at 10 mg/ml,no appreciable loss of enzymatic activity

# — US6660715B2, “Nonaqueous solutions and suspensions of macromolecules for pulmonary delivery” (Massachusetts Institute of Technology, priority 1998, dated 2003)
